Assay results: paper PMC9677513

How the values were obtained:
[1] = target: Nano-CRAF^CAT (human) (UniProt P04049); test: FRET or BRET
[2] = target: E275K-BRAF^FL-RLuc8 (human) (UniProt P15056); test: FRET or BRET

| increase of BRET signal over CRAF^REG [1] [%] | increase of BRETmax over WT [2] [%] | Substance |
| --- | --- | --- |
| 40 |  | CRAF^REG construct containing the BRAF-CRD, Halo-tagged (domain or fragment) |
|  | 15 | Venus-KRAS^G12V (from UniProt P01116 1-189) (natural protein) |
